Laboratory results from article PMC6826200, “An oligomeric state‐dependent switch in the ER enzyme FICD regulates AMPylation and deAMPylation of BiP” (The EMBO Journal, 2019).

Target: the molecule itself
Assay: AUC; fluorescence-detected sedimentation velocity; Oregon Green-labelled FICD from 1.6 μM to 31 pM; 50 mM HEPES-KOH pH 7.4, 150 mM KCl, 10 mM MgCl2, 1 mM CaCl2, 0.3 mM TCEP, 0.1% Tween-20, 0.15 mg/ml BSA; 45,000 rpm, 20°C; monomer-dimer isotherm of signal-averaged s; dimer to monomers

B1: Oregon Green-labelled FICD^NC (wild-type FICD carrying an N-terminal cysteine) (domain or fragment, human)
chain: CLEARAALNQALEMKRQGKREKAQKLFMHALKMDPDFVDALTEFGIFSEEDKDIIQADYLYTRALTISPYHEKALVNRDRTLPLVEEIDQRYFSIIDSKVKKVMSIPKGNSALRRVMEETYYHHIYHTVAIEGNTLTLSEIRHILETRYAVPGKSLEEQNEVIGMHAAMKYINTTLVSRIGSVTISDVLEIHRRVLGYVDPVEAGRFRTTQVLVGHHIPPHPQDVEKQMQEFVQWLNSEEAMNLHPVEFAALAHYKLVYIHPFIDGNGRTSRLLMNLILMQAGYPPITIRKEQRSDYYHVLEAANEGDVRPFIRFIAKCTETTLDTLLFATTEYSVALPEAQP
modifications: Oregon Green 488 on the N-terminal cysteine (labelling efficiency 74%)
notes: N-terminal cysteine added for site-specific labelling; FICD (HYPE), human, residues 104-445; also called UK 2339; source: E. coli, purified, labelled with Oregon Green 488-iodoacetamide, SEC
In the case of B1, the Kd is reported as 1.2 nM.
